# From publication PMC12776482, “Structural and Functional Analysis of GGPPS Inhibition as a Therapeutic Mechanism for Acute Myeloid Leukemia (AML)” (Research Square, 2025)
# B1: wild-type recombinant human geranylgeranyl pyrophosphate synthase (GGPPS) (enzyme)
# chain: MEKTQETVQRILLEPYKYLLQLPGKQVRTKLSQAFNHWLKVPEDKLQIIIEVTEMLHNASLLIDDIEDNSKLRRGFPVAHSIYGIPSVINSANYVYFLGLEKVLTLDHPDAVKLFTRQLLELHQGQGLDIYWRDNYTCPTEEEYKAMVLQKTGGLFGLAVGLMQLFSDYKEDLKPLLNTLGLFFQIRDDYANLHSKEYSENKSFCEDLTEGKFSFPTIHAIWSRPESTQVQNILRQRTENIDIKKYCVHYLEDVGSFEYTRNTLKELEAKAYKQIDARGGNPELVALVKHLSKMFKEENE
# notes: human geranylgeranyl pyrophosphate synthase (GGPPS, GGPS1), wild type; His6 tag removed with TEV protease; also called GGPP synthase; hGGPPS; source: E. coli (BL21 DE3), purified (Ni-NTA, TEV cleavage, second Ni-NTA, Superdex 200); not shown: His6, N-terminal, cleaved
# Biological target: the molecule itself
# Experiment: mass photometry; purified wild-type recombinant human GGPPS in solution; conditions not shown (Fig. S2)
protein,measurement,value
B1,stoichiometry N,6
